The values that follow come from publication PMC3293223 (Biochemistry, 2012).

The term stoichiometry N denotes the number of molecules, sites or subunits per partner or assembly.

In series [1] the target is thioredoxin mutant including only C32 (TRXC32) (UniProt P10599). Description: cross-linking.
Series [2] deals with the molecule itself. Description: SEC. A general note: In gel filtration, larger molecules generally elute earlier.

On to “thioredoxin mutant including only C32 (TRXC32) (from UniProt P10599 1-105) (enzyme)”, for which the stoichiometry N in series [1] came out at 2.

B1: N-terminally truncated APE1 including only Cys 99 with all other Cys residues mutated to Ala (40APE1 C99) (domain or fragment, human, UniProt P27695 41-318, looked up)
chain: GPALYEDPPDQKTSPSGKPATLKIASWNVDGLRAWIKKKGLDWVKEEAPDILALQETKCSENKLPAELQELPGLSHQYWSAPSDKEGYSGVGLLSRQAPLKVSYGIGDEEHDQEGRVIVAEFDSFVLVTAYVPNAGRGLVRLEYRQRWDEAFRKFLKGLASRKPLVLAGDLNVAHEEIDLRNPKGNKKNAGFTPQERQGFGELLQAVPLADSFRHLYPNTPYAYTFWTYMMNARSKNVGWRLDYFLLSHSLLPALADSKIRSKALGSDHAPITLYLAL
modifications: Cys 99 oxidised with 1 mM diamide before the reaction with TRXC32
For the molecule B1, the binding result in series [2] is on record as “binds”.
